Target: T1, purified recombinant human CD40 protein (human, UniProt P25942 21-193)
T1 construct: also called recombinant CD40
Experiment: ELISA on coated recombinant human CD40; chimeric antibody supernatant
Procedure: ELISA plate was coated with purified recombinant CD40 protein in coating buffer at lug/ml overnight. After washed for 3 times, the plate was blocked with 1% BSA, and then cell culture supernatants containing rabbit-human chimeric CD40 antibodies were added to the plate. For detection of the antibody binding to CD40 protein, goat anti-human Fc polyclonal antibody conjugated to alkaline phosphatase was used.

T1 sequence (P25942 21-193 limits assumed): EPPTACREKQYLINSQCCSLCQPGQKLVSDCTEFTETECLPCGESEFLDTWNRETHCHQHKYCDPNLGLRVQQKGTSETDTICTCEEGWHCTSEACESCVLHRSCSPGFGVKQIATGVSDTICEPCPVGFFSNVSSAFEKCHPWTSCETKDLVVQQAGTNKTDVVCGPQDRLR

Row | Binder | OD405
1 | 192 rabbit-human chimeric anti-CD40 antibody (antibody, V domains shown, tested as cell culture supernatant) VH: QSVEESGGRLVTPGTPLTLTCTVSGFSLSSYAMNWVRQAPGKGLEYTGMIATGGKTFYAGWAEGRFTISKTSTTVDLHIASLTTEDTATYYCARGYVGDIYFGFWGPGTLVTVSS VL: AVLTQTPSPVSAGVGGTVTISCQSSKSVYYNTHLSWFQQKPGQPPKLLIYRASTLASGVPSRFKGSGSGTQFTLTISDVQCDDAATYYCAGGYANDVDNGFGGGTEVVVK | 2 OD405
2 | 6G8 rabbit-human chimeric anti-CD40 antibody (antibody, V domains shown, tested as cell culture supernatant) VH: QSVEESGGRLVTPGTPLTLTCTASGFSLSTYYMTWVRQAPGKGLEAIGYINTGGSTYYASRAKGRFTISKTSTTVDLKMTSPTTEDTATYFCARADASEHNYNGLNIWGPGTLVTVSS VL: DIVMTQTPASVSEPVGGTVTIKCQASESISSNLAWYQQKPGQPPKFLIYRASTLASGVPSRFKGSGFGTQFTLTISDLECADAATYYCQSNYGSISSSYGNAFGGGTEVVVK | 1.77 OD405
3 | 7C11 rabbit-human chimeric anti-CD40 antibody (antibody, V domains shown, tested as cell culture supernatant) VH: QSLEESGGRLVTPGGSLTLTCTVSGIDLSTNGMGWVRQGPGKGLEWIGTIRVTAGTDYANWAKGRFTISKTSSTTVDLKMTSLTTEDTATYFCARGHANNDAYVYFNLWGQGTLVTVSS VL: AFELTQTPASVEAGVGGTVTIKCQASQSIDRYLAWYQQKSGQPPKLLISYTSKLASGVPSRFKGSGSGTEFTLTISDLECADAATYYCQSYFTSDDANSFGGGTEVVVK | 1.8 OD405
4 | 5F9 rabbit-human chimeric anti-CD40 antibody (antibody, V domains shown, tested as cell culture supernatant in the ELISA) VH: QSVEESGGRLVTPGTPLTLTCTASGFSLIGYVMGWFRQAPGKGLEYIGWISFGGDPYYASWVKGRFTISKTSTTVDLKMTSLTTEDTATYFCARSTYGDIWGPGTLVTVSS VL: DIVMTQTPASVEAAVGGTVTIKCQASQSISSRLAWYQLKPGQPPKLLIYSASTLASGVPSRFKGSGSGTEFTLTISDLECADAATYYCQNHGYATSESYTNTFGGGTEVVVK | 1.83 OD405
5 | 2C10 rabbit-human chimeric anti-CD40 antibody (antibody, V domains shown, tested as cell culture supernatant) VH: QSLEESGGRLVTPGTPLTLTCTASGFTMNRYRMSWVRQAPGKGLEWIGTINNDAGASYASWVNGRFTISKTSSTTVDLKITGPTTEDTATYFCARAGDNIYVDLYNLWGPGTLVTVSS VL: DVVMTQTPASVSGAVGGTVTIKCQASENIFSYLAWYQQKPGQPPKLLFYGASNLASGVPSRFSGSRSGTEFTLTISDLECADAATYYCQFTNYGSSDIRSPFGGGTEVVVK | 2.14 OD405
6 | 6E1 rabbit-human chimeric anti-CD40 antibody (antibody, V domains shown, tested as cell culture supernatant) VH: QSVEESGGRLVTPGTPLTLTCTVSGFSLSSYAMTWVRQAPGKGLEWLGIIDTIGSTYYASWAKGRFTISKTSTTVDLKITSPTTEDTATYFCVRDYIGSTSGKKLWGRGTLVTVSS VL: AVLTQTPSSVEAAVGGTVSISCQSSKSVYYKNWLAWYQQKPGQPPKLLIYGASTLASGVPSRFKGSGSGAQFTLTISDVQCDDAATYYCAGGYSSDSDTGFGGGTEVVVK | 1.82 OD405
7 | 6H9 rabbit-human chimeric anti-CD40 antibody (antibody, V domains shown, tested as cell culture supernatant) VH: QSLEESGGRLVTPGTPLTLTCTVSGIDLSSYAMGWVRQAPGKGLEYIGVIASNSGISYYATWAEGRFTISKASTTVDLKITSPTTEDTATYFCVRGYIGDGALWGPGTLVTVSS VL: AVLTQTPSSVSAAVGGTVTINCQSSKTVYYNNWLAWYQQKPGQPPKLLIYRASTLASGVPSRFKGSGSGTQFTLTISDVQCDDATTYYCAGGFSSDSDTTFGGGTEVVVK | 1.97 OD405
8 | 3B12 rabbit-human chimeric anti-CD40 antibody (antibody, V domains shown, tested as cell culture supernatant) VH: QSLEESGGRLVTPGTPLTLTCTVSGIDLSSYAMGWVRQAPGKGLEYIGVIASNSGISYYATWAEGRFTISKASTTVDLKITSPTTEDTATYFCVRGYIGDGALWGPGTLVTVSS VL: AVLTQTPSSVSAAVGGTVTINCQSSKTVYYNNWLAWYQQKPGQPPKLLIYRASTLASGVPSRFKGSGSGTQFTLTISDVQCDDATTYYCAGGFSSDSDTTFGGGTEVVVK | 1.57 OD405
9 | 2B8 rabbit-human chimeric anti-CD40 antibody (antibody, V domains shown, tested as cell culture supernatant) VH: QSLEESGGRLVTPGTPLTLTCTVSGIDLSSYAMGWVRQAPGKGLEYIGVIASNSGISYYATWAEGRFTISKASTTVDLKITSPTTEDTATYFCVRGYIGDGALWGPGTLVTVSS VL: AVLTQTPSSVSAAVGGTVNIGCQSSKSVYYNNWLAWYQQKPGQPPKLLIYRASTLASGVPSRFKGSGSGTQFTLTISDVQCADATTYYCAGGYSSDSDTTFGGGTEVVVK | 1.64 OD405
10 | 2E11 rabbit-human chimeric anti-CD40 antibody (antibody, V domains shown, tested as cell culture supernatant in the ELISA) VH: QSLEESGGRLVTPGTPLTLTCTVSGIDLSRYAMGWVRQAPGKGLEFIGIITSNSGDTYYATWAKGRFTISKTSTTVDLKITSPTTEDTATYFCVRGYIGAPNLWGPGTLVTVSS VL: AVLTQTPSPVSAAVGGTVSISCQSSKTVYYNNYLSWFQQKPGQPPKELIYYASTLSSGVPSRFKGSGSGTQFTLTISDVQCDDAATYYCAGGYNSDSDNTFGGGTEVVVK | 1.79 OD405
11 | 1D3 rabbit-human chimeric anti-CD40 antibody (antibody, V domains shown, tested as cell culture supernatant) VH: QSLEESGGRLVTPGTPLTLTCTASGFSLSNYHMCWVRQAPGKGLEWIGYNSYGGSAYYASWAKGRFTISKTSTTVDLKITRPTTEDTATYFCARAYLDYNGDMGFALWGPGTLVTVSS VL: EVVMTQTPSSVSAAVGGTVTFKCQASQSISSYLSWYQQKPGQPPKLLIYRASTLESGVPSRFKGSGSGTQFTLTISDLECADAATYYCQTNYYDSGNTYGTFGGGTEVVVK | 1.51 OD405
12 | 6C2 rabbit-human chimeric anti-CD40 antibody (antibody, V domains shown, tested as cell culture supernatant) VH: QSVEESGGRLVTPGTPLTLTCTASGFSLSTYYMIWVRQAPGKGLDYIGIISSNGNAYYATWAKGRFTISKTSTTVDLKMTSPTTEDTATYFCARAASIANSYYFNVWGPGTLVTVSS VL: AVLTQTPSPVSAAVGGTVSISCQSSQSVRDNNWLSWFQQKPGHPPKLLIYGASNLESGVPSRFSGSGSGTEFTLTISDVQCDDAATYYCQGGFSTYSDNSFGGGTEVVVK | 1.96 OD405
13 | 5D10 rabbit-human chimeric anti-CD40 antibody (antibody, V domains shown, tested as cell culture supernatant) VH: QSVEESGGRLVTPGTPLTLTCTVSGFSFYDHTMIWVRQAPGKGLEYIGFINIGGRAYYASWAKGRFTISRTSTTVDLEMTSLTTEDTATYFCARGDTHGYSYPEIWGPGTLVTVSS VL: DIVMTQTPASVEAGVGGTVTIKCQASQTIYSYLSWYQQKPGQPPKLLIYRASTLASGVPSRFRGSGSGTEFTLTISDLECADAAAYYCQNYYDSTSSNAFGKGTEVVVK | 0.98 OD405

The remaining lines, values ahead:

Row | OD405 | Binder
14 | 1.84 OD405 | 195 rabbit-human chimeric anti-CD40 antibody (antibody, V domains shown, tested as cell culture supernatant) VH: QSVEESGGRLVTPGTPLTLTCTVSGFSLSSYAMNWVRQAPGKGLEYIGMIATGGKTFYAGWAEGRFTISKTSTTVDLHIASLTTEDTATYYCARGYVGDIYFGFWGPGTLVTVSS VL: AVLTQTPSPVSAGVGGTVTISCQSSKSVYYNTHLPWFQQKPGQPPKLLIYRASTLASGVPSRFKGSGSGTQFTLTISDVQCDDAATYYCAGGYANDVDNGFGGGTEVVVK
15 | 1.46 OD405 | 7H11 rabbit-human chimeric anti-CD40 antibody (antibody, V domains shown, tested as cell culture supernatant) VH: QSVEESGGRLVTPGTPLTLTCTVSGIDFSKYWMAWVRQAPGEGLEYIGILSTTGSTYYASWAKGRFTISKTSTTVDLKITSLTTEDTATYFCARGNYIGNGYTWDIWGPGTLVTVSS VL: DPVLTQTPSSASEPVGGTVTIKCQASQSIGSYLAWYQQKPGQPPKLLIYSPSTLASGVSSRFKGSRSGTEFTLTISDLECADAATYYCQSTAVGITFGGGTEVVVK
16 | 2.09 OD405 | 8C10 rabbit-human chimeric anti-CD40 antibody (antibody, V domains shown, tested as cell culture supernatant) VH: QSLAESGGRLVTPGGSLTLTCTVSGIDLSTDGMGWVRQGPGKGLEWIGTIRVTGGTDFATWAKGRFTIAKTSSTTVDLKMTSLTTEDTATYFCARGHANNDAYVYFNLWGQGTLVTVSS VL: AFELTQTPASVEAGVGGTVTIKCQASQSIDRYLAWYQQKPGQPPKLLMAAAANLASGVPSRFKGSRSGTEFTLTISDLECADGATYYCQSYFTSDDGNTFGGGTEVVVK
17 | 1.82 OD405 | 7G6 rabbit-human chimeric anti-CD40 antibody (antibody, V domains shown, tested as cell culture supernatant) VH: QSLEESGGRLVTPGGSLTLTCTVSGIDLSTNGMGWVRQGPGKGLEWIGTIRVTGGTDYATWAKGRFTISKTSSTTVDLKMTSPTTEDTATYFCARGHANNDAYVYFNLWGQGTLVTVSS VL: AFELTQTPASVEAGVGGTVTIKCQASQSIDRYLAWYQQKPGQPPKLLISYTSTLTSGVPSRFKGSGSGTEFTLTISDLECADAATYYCQSYFTSDDANTFGGGTEVVVK
18 | 1.99 OD405 | 7A6 rabbit-human chimeric anti-CD40 antibody (antibody, V domains shown, tested as cell culture supernatant) VH: QSVEESGGRLVTPGTPLTLACTVSGIDLSTWTMSWVRQAPGKGLEWIGIINSDSNTYYASWAKGRFTISKASTTVDLKMTSLTTEDTATYFCARGVGGYSSGPDYLDIWGPGTLVTVSS VL: DIVMTQTPASVEAAVGGTVTIKCQASQSIYRSLAWYQQKPGQPPKLLMYHASDLASGVPSRFKGSGSGTEYTLTISDLECADAATYYCQSYYYSGINTYGNAFGGGTEVVVK
19 | 1.97 OD405 | 8C6 rabbit-human chimeric anti-CD40 antibody (antibody, V domains shown, tested as cell culture supernatant) VH: QSVEESGGRLVTPGTPLTLTCTASGFTITSYYIIWVRQAPGEGLEYIGIIDTGGSADYASWAKGRFTISRTSTTVDLKMTSLTTEDTATYFCARADVGSVGSIWGPGTLVTVSS VL: DVAMTQTPSSVSAAVGGTVTIECQASQNIYTNLAWYQQKPGQRPKLLIYYASTLASGVPSRFSGSGSGTEFSLTISDLECADAATYYCQCTYIKWRHVCGFGGGTEVVVK
20 | 1.82 OD405 | 7D2 rabbit-human chimeric anti-CD40 antibody (antibody, V domains shown, tested as cell culture supernatant) VH: QSVEESGGRLVTPGTPLTLTCTVSGFSLNNYYMGWVRQAPGKGLEYIGWITSGRIAAYANWAKGRFTISKTSTTVDLKITSPTIGDTATHFCATTTTSDAYFFPRLGLWGQGTLVTVSS VL: AVLTQTPSPVSAAVEGTVTINCQSSQSVDNNRLSWFQQKPGQPPKLLIYDASTLASGVPPRFKGSGSGTQFTLTISDVQCDDAATYYCAGGYSFPSENAFGGGTEVVVK
21 | 1.69 OD405 | 194 rabbit-human chimeric anti-CD40 antibody (antibody, V domains shown, tested as cell culture supernatant) VH: QSVEESGGRLVTPGTPLTLTCTVSGFSLSSYAMSWVRQAPGKGLEYIGVMNTGGSAHYATWAKGRFTISKTSTTVDLKITSPTTADTATYFCARGYIGSPNLWGPGTLVTVSS VL: AVLTQTPSPVSAAVGGTVSISCQSSKSVYYNNYLSWFQQKPGQPPKQLIYLASTLASGVPSRFKGSGSGTEFTLTISDVQCADAATYYCAGGYTDSDDAFGGGTEVVVK
22 | 1.92 OD405 | 196 rabbit-human chimeric anti-CD40 antibody (antibody, V domains shown, tested as cell culture supernatant) VH: QSVEESGGRLVTPGTPLTLTCTVSGFSLSAYAIHWVRQAPGKGLEYIGIIDAGGNIVYATWALGRFTISKTSTTVDLKITSPTTEDTATYFCGRGLSSYSNSAMDLWGPGTLVTVSS VL: DVVMTQTPASVSEPVGGTVTMKCQASQNIYTYLAWYQQKPGRPPKLLIYQASTLASGVSSRFSGSGSGTEFTLTISDLECADAATYYCQSTAGNAYNAFGGGTEVVVK

From patent US20220348674A1 (APOLLOMICS, published 2022)
